The target of the test is 4Ig-B7H3, the 4Ig domain isoform of the human B7-homolog 3 (human) (UniProt Q5ZPR3). Briefly: Immunoaffinity capture from LAN-1 lysate or membrane fraction on 8H9-protein G Sepharose, followed by Western blot.
Sequence of UniProt Q5ZPR3 (Q5ZPR3 29-534 limits assumed, form in doubt): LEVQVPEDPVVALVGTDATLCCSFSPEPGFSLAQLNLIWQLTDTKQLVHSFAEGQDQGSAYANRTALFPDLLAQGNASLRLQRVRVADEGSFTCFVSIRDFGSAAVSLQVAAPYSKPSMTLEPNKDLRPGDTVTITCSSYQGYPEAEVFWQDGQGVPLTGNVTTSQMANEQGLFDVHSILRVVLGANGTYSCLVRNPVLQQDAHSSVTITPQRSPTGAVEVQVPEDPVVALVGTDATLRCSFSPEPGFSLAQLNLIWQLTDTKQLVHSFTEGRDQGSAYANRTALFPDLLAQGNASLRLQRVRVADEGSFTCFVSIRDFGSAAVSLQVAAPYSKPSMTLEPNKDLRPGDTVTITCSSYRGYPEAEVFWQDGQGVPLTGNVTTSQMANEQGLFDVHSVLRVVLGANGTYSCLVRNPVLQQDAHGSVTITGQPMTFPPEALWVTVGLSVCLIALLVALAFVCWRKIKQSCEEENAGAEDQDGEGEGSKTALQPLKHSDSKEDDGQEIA

Turning to monoclonal antibody 8H9, the portion of 8H9 antigen bound to the Sepharose is more than 50%.
